According to patent US20170247475A1 (Boehringer Ingelheim, published 2017):

Legend:
[1] = target: T1, human VEGF-D (human, UniProt O43915 93-201); assay: binding ELISA on coated VEGF D
T1 construct: also called hVEGF-D
T1 sequence (looked up): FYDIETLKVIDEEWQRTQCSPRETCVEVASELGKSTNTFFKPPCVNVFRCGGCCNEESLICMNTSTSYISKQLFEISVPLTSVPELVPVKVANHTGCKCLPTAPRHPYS
Procedure: (§1) Binding to VEGFB, VEGFC, VEGFD and PIGF is assessed via a solid phase binding ELISA. In brief, VEGFB, VEGFC, VEGFD and PIGF (R&D Systems, Minneapolis, Minn., USA) are coated overnight at 4° C. at 1 μg/mL in a 96-well MaxiSorp plate (Nunc, Wiesbaden, Germany). Wells are blocked with a casein solution (1% in PBS). […] As positive controls serial dilutions of the appropriate receptors are taken along and detected with horseradish peroxidase (HRP)-conjugated goat anti-human IgG, Fc specific antibody (Jackson Immuno Research Laboratories Inc., West Grove, Pa., USA) and a subsequent enzymatic reaction in the presence of the substrate TMB (3,3′,5,5′-tetramentylbenzidine) (Pierce, Rockford, Ill., USA).

[2] = target: T2, human VEGF-B (human, UniProt P49765-2 22-188, limits assumed); assay: binding ELISA on coated VEGFB
T2 construct: also called hVEGF-B
T2 sequence (looked up): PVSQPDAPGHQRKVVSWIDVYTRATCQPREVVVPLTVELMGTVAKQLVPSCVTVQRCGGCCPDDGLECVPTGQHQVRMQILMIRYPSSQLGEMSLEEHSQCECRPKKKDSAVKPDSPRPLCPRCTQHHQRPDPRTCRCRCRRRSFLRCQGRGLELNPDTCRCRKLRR
Procedure: as §1

[3] = target: T3, recombinant human VEGF165 (human, UniProt P15692-4 27-191); assay: VEGF165/hVEGFR1-Fc competition AlphaScreen
T3 construct: also called hVEGF165; rhVEGF165
Procedure: (§2) Finally, streptavidin donor beads (20 μg/ml) are added and after 1 hour of incubation in the dark, fluorescence is measured on the Envision microplate reader.

[4] = target: T4, recombinant mouse VEGF164 (mouse, UniProt Q00731-2 27-190); assay: binding ELISA, coated rmVEGF164
T4 construct: biotinylated in the mVEGFR2 AlphaScreen; also called rmVEGF164; mVEGF164
T4 sequence (looked up): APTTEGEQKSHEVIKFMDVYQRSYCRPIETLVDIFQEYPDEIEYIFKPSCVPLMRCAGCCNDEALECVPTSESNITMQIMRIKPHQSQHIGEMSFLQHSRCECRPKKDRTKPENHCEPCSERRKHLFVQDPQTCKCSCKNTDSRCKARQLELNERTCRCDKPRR
Procedure: (§3) Cross-reactivity to mouse VEGF164 is determined using a binding ELISA. […] Wells are blocked with a casein solution (1% in PBS). […] A mouse VEGF164 reactive mAb is included as positive control.

[5] = target: T3, recombinant human VEGF165; assay: binding ELISA, coated rhVEGF165
[6] = target: T3, recombinant human VEGF165; assay: ka1; SPR Biacore T100, hVEGF165 on chip, Two State Reaction model
Procedure: (§4) Samples are injected for 2 min and allowed to dissociate up to 20 min at a flow rate of 45 μI/min. In between sample injections, the chip surface is regenerated with 100 mM HCl. HBS-EP+(Hepes buffer pH7.4+EDTA) is used as running buffer. Binding curves are fitted using a Two State Reaction model by Biacore T100 Evaluation Software v2.0.1.
(§5) ^{(a)}KD = kd1/kₐ₁ * (kd2/(kd2 + kₐ₂)) ^{(b)}Curves are fitted using a Two State Reaction model by Biacore T100 Evaluation Software v2.0.1

[7] = target: T5, human VEGF-C (human, UniProt P49767 103-227); assay: binding ELISA on coated VEGFC
T5 construct: also called hVEGF-C
T5 sequence (looked up): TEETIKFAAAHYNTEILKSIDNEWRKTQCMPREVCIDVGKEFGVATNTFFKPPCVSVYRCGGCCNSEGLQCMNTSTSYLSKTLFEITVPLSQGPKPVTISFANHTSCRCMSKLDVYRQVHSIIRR
Procedure: as §1

[8] = target: T3, recombinant human VEGF165; assay: hVEGF165/hVEGFR2-Fc competition AlphaScreen
Procedure: as §2

[9] = target: T6, human PIGF (human, UniProt P49763-2 21-149, limits assumed); assay: binding ELISA on coated PIGF
T6 construct: also called hPIGF; PLGF
T6 sequence (looked up): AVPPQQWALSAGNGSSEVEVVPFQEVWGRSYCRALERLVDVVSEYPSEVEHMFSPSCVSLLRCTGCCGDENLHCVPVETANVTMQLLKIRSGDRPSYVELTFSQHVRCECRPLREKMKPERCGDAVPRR
Procedure: as §1

[10] = target: T3, recombinant human VEGF165; assay: VEGF165/hVEGFR1-Fc competition ELISA
[11] = target: T3, recombinant human VEGF165; assay: VEGF/VEGFR2 competition AlphaScreen
Procedure: as §2

[12] = target: T3, recombinant human VEGF165; assay: SPR Biacore T100, Two State Reaction model; KD = kd1/ka1 * (kd2/(kd2 + ka2))
Procedure: as §4, §5

[13] = target: T3, recombinant human VEGF165; assay: SPR Biacore T100, hVEGF165 on chip, Two State Reaction model
Procedure: as §4, §5

[14] = target: VEGF; assay: cell-based or functional assay
[15] = target: VEGF; assay: cell-based or functional assay; remark: listed apart in the source
[16] = target: T3, recombinant human VEGF165; assay: kd1; SPR Biacore T100, hVEGF165 on chip, Two State Reaction model
Procedure: as §4, §5

[17] = target: T3, recombinant human VEGF165; assay: VEGF/VEGFR1 competition AlphaScreen
Procedure: as §2

[18] = target: T3, recombinant human VEGF165; assay: hVEGF165/hVEGFR2-Fc competition ELISA
[19] = target: T4, recombinant mouse VEGF164; assay: binding ELISA on coated mouse VEGF164
Procedure: as §3

[20] = target: T7, recombinant human VEGF121 (human, UniProt P15692-9 27-147); assay: binding ELISA, coated rhVEGF121
T7 construct: also called rhVEGF121; hVEGF121
T7 sequence (looked up): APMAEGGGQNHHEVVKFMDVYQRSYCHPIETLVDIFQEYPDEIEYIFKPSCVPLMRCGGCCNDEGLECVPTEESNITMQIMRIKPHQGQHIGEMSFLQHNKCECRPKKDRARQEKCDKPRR
Procedure: Binding to recombinant human VEGF121 is assessed via a solid phase binding ELISA. Briefly, recombinant human VEGF121 (R&D Systems, Minneapolis, Minn., USA) is coated overnight at 4° C. at 1 μg/mL in a 96-well MaxiSorp plate (Nunc, Wiesbaden, Germany). Wells are blocked with a casein solution (1% in PBS).

B1: VEGFBII021 (VHH)
chain: EVQLVESGGGLVQTGDSLRLSCEVSGRTFSSYSMGWFRQAQGKEREFVVAISKGGYKYDSVSLEGRFTISKDNAKNTVYLQINSLKPEDTAVYYCASSRAYGSSRLRLADTYEYWGQGTQVTVSSGGGGSGGGGSGGGGSGGGGSGGGGSGGGGSGGGGSGGGGSEVQLVESGGGLVQPGGSLRLSCVASGIRFMSMAWYRQAPGKHRELVARISSGGTTAYVDSVKGRFTISRDNSKNTVYLQMNSLKAEDTAVYYCNTFSSRPNPWGAGTQVTVSS
notes: biparatopic bivalent VHH in one chain; also called VEGFBII23B04-40GS-5B05
[1]
  binding result: no binding (tested: 5e-7 M)
[2]
  binding result: no binding (tested: 5e-7 M)
[3]
  % inhibition: 100%
  IC50: 0.012 nM
[4]
  EC50: 0.502 nM
[5]
  EC50: 0.334 nM
[6]
  kon: 1.2e+06 M⁻¹ s⁻¹
[7]
  binding result: no binding (tested: 5e-7 M)
[8]
  % inhibition: 100%
  IC50: 0.007 nM
[9]
  binding result: no binding (tested: 5e-7 M)
[10]
  % inhibition: 97%
  IC50: 0.254 nM
[11]
  IC50: 0.009 nM
[12]
  Kd: 0.07 nM
[13]
  ka2: 0.023 s⁻¹
  kd2: 0.00019 s⁻¹
[14]
  % inhibition, VEGF HUVEC proliferation assay: 98%
  IC50 (nM), VEGF HUVEC proliferation assay: 0.4 nM
[15]
  % inhibition, VEGF HUVEC Erk phosphorylation assay: 103%
  IC50 (nM), VEGF HUVEC Erk phosphorylation assay: 0.21 nM
[16]
  koff: 0.011 s⁻¹
[17]
  % inhibition: 100%
  IC50: 0.016 nM
[18]
  % inhibition: 100%
  IC50: 0.204 nM

B2: VEGFBII023 (VHH)
chain: EVQLVESGGGLVQTGDSLRLSCEVSGRTFSSYSMGWFRQAQGKEREFVVAISKGGYKYDSVSLEGRFTISKDNAKNTVYLQINSLKPEDTAVYYCASSRAYGSSRLRLADTYEYWGQGTQVTVSSGGGGSGGGGSGGGGSGGGGSGGGGSGGGGSGGGGSGGGGSEVQLVESGGGLVQAGGSLRLSCAASGRTFSNYAMGWFRQAPGKERVLVADISSSGINTYVADAVKGRFTISRDNAKNTVYLQMNSLKPEDTAVYYCAASAWWYSQMARDNYRYWGQGTQVTVSS
notes: biparatopic bivalent VHH in one chain; also called VEGFBII23B04-40GS-10E07; VEGFBI023
[1]
  binding result: no binding (tested: 5e-7 M)
[2]
  binding result: no binding (tested: 5e-7 M)
[3]
  % inhibition: 87%
  IC50: 0.048 nM
[5]
  EC50: 0.221 nM
[6]
  kon: 300000 M⁻¹ s⁻¹
[7]
  binding result: no binding (tested: 5e-7 M)
[8]
  % inhibition: 100%
  IC50: 0.046 nM
[19]
  binding result: binds
[9]
  binding result: no binding (tested: 5e-7 M)
[11]
  IC50: 0.038 nM
[12]
  Kd: 0.69 nM
[13]
  ka2: 0.024 s⁻¹
  kd2: 0.00027 s⁻¹
[15]
  % inhibition, VEGF HUVEC Erk phosphorylation assay: 100%
  IC50 (nM), VEGF HUVEC Erk phosphorylation assay: 0.25 nM
[16]
  koff: 0.018 s⁻¹
[17]
  % inhibition: 91%
  IC50: 0.044 nM
[18]
  % inhibition: 100%
  IC50: 0.213 nM

B3: VEGFBII025 (VHH)
chain: EVQLVESGGGLVQAGGSLRLSCAASGRTFSNYAMGWFRQAPGKERVLVADISSSGINTYVADAVKGRFTISRDNAKNTVYLQMNSLKPEDTAVYYCAASAWWYSQMARDNYRYWGQGTQVTVSSGGGGSGGGGSGGGGSGGGGSGGGGSGGGGSGGGGSGGGGSEVQLVESGGGLVQTGDSLRLSCEVSGRTFSSYSMGWFRQAQGKEREFVVAISKGGYKYDSVSLEGRFTISKDNAKNTVYLQINSLKPEDTAVYYCASSRAYGSSRLRLADTYEYWGQGTQVTVSS
notes: biparatopic bivalent VHH in one chain; also called VEGFBII10E07-40GS-23B04
[1]
  binding result: no binding (tested: 5e-7 M)
[2]
  binding result: no binding (tested: 5e-7 M)
[3]
  % inhibition: 82%
  IC50: 0.071 nM
[5]
  EC50: 0.668 nM
[6]
  kon: 330000 M⁻¹ s⁻¹
[7]
  binding result: no binding (tested: 5e-7 M)
[8]
  % inhibition: 100%
  IC50: 0.051 nM
[19]
  binding result: binds
[9]
  binding result: no binding (tested: 5e-7 M)
[20]
  EC50: 0.475 nM
[11]
  IC50: 0.051 nM
[12]
  Kd: 1.1 nM
[13]
  ka2: 0.018 s⁻¹
  kd2: 0.00037 s⁻¹
[15]
  % inhibition, VEGF HUVEC Erk phosphorylation assay: 99%
  IC50 (nM), VEGF HUVEC Erk phosphorylation assay: 0.23 nM
[16]
  koff: 0.017 s⁻¹
[17]
  % inhibition: 82%
  IC50: 0.039 nM
[18]
  % inhibition: 100%
  IC50: 0.577 nM
